The values that follow come from the supplement of paper PMC11908140.

Sequences and labels used below:
B1: library; numbered along this chain (parent)
chain: MRKPRAAVGSGHRKQAASQEGRQKHAKNNSQAKPSACDGLARQPEEVVLQASVSSYHLFRDVAEVTAFRGSLLSWYDQEKRDLPWRRRAEDEMDLDRRAYAVWVSEVMLQQTQVATVINYYTGWMQKWPTLQDLASASLEEVNQLWAGLGYYSRGRRLQEGARKVVEELGGHMPRTAETLQQLLPGVGRYTAGAIASIAFGQATGVVDGNVARVLCRVRAIGADPSSTLVSQQLWGLAQQLVDPARPGDFNQAAMELGATVCTPQRPLCSQCPVESLCRARQRVEQEQLLASGSLSGSPDVEECAPNTGQCHLCLPPSEPWDQTLGVVNFPRKASRKPPREESSATCVLEQPGALGAQILLVQRPNSGLLAGLWEFPSVTWEPSEQLQRKALLQELQRWAGPLPATHLRHLGEVVHTFSHIKLTYQVYGLALEGQTPVTTVPPGARWLTQEEFHTAAVSTAMKKVFRVYQGQQPGTCMGSKRSQVSSPCSRKKPRMGQQVLDNFFRSHISTDAHSLNSAAQ

In the series the parent is B1. Nature of the series: 8OG:A repair function score (normalized; synonymous = 0, nonsense = -1) (normalized log-likelihood score); higher = more repair activity (WT-like). The following applies: with 8OG:A DNA repair reporter (GFP) in HEK-293 MUTYH KO cells. A digest of the protocol: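 Lentiviral MUTYH cDNA NNN codon-scan libraries in HEK-293 MUTYH knockout cells (10 pg/ml doxycycline) were co-transfected with an 8OG:A GFP repair reporter plus mCherry. At 72 h, viable mCherry+ cells were sorted into GFP+ (repair) and GFP− bins, three replicates per tile, then tile amplicons were sequenced. Per-tile Rosace fitness scores became a normalized repair function score anchored on synonymous and nonsense distributions. Synonymous medians were set to 0 and nonsense to -1; variants under 300 counts per million at the start were removed.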
Turning to MRKPRAAVGSGHRKQAASQEGRQKHAKNNSQAKPSACDGLARQPEEVVLQASVSSYHLFRDVAEVTAFRGSLLSWYDQEKRDLPWRRRAEDEMDLDRRAYAVWVSEVMLQQTQVATVINYYTGWMQKWPTLQDLASASLEEVNQLWAGLGYYSRGRRLQEGARKVVEELGGHMPRTAETLQQLLPGVGRYTAGAIASIAFGQATGVVDGNVARVLCRVRAIGADPSSTLVSQQLWGLAQQLVDPARPGDFNQAAMELGATVCTPQRPLCSQCPVESLCRARQRVEQEQLLASGSLSGSPDVEECAPNTGQCHLCLPPSEPWDQTLGVVNFPRKASRKPPREESSATCVLEQPGALGAQILLVQRPNSGLLAGLWEFPSVTWEPSEQLQRKALLQELQRWAGPLPATHLRHLGEVVHTFSHIKLTYQVYGLALEGQTPVTTVPPGARWLTQEEFHTAAVSTAMKKVFRVYQGQQPGTCMGYKRSQVSSPCSRKKPRMGQQVLDNFFRSHISTDAHSLNSAAQ [S480Y], the “8OG:A repair function score” value was -0.0114.
Under MRKPRAAVGSGHRKQAASQEGRQKHAKNNSQAKPSACDGLARQPEEVVLQASVSSYHLFRDVAEVTAFRGSLLSWYDQEKRDLPWRRRAEDEMDLDRRAYAVWVSEVMLQQTQVATVINYYTGWMQKWPTLQDLASASLEEVNQLWAGLGYYSRGRRLQEGARKVVEELGGHMPRTAETLQQLLPGVGRYTAGAIASIAFGQATGVVDGNVARVLCRVRAIGADPSSTLVSQQLWGLAQQLVDPARPGDFNQAAMELGATVCTPQRPLCSQCPVESLCRARQRVEQEQLLASGSLSGSPDVEECAPNTGQCHLCLPPSEPWDQTLGVVNFPRKASRKPPREESSATCVLEQPGALGAQILLVQRPNSGLLAGLWEFPSVTWEPSEQLQRKALLQELQRWAGPLPATHLRHLGEVVHTFSHIKLTYQVYGLALEGQTPVTTVPPGARWLTQEEFHTAAVSTAMKKVFRVYQGQQPGTCMGRKRSQVSSPCSRKKPRMGQQVLDNFFRSHISTDAHSLNSAAQ [S480R] stands 0.00162.
As to MRKPRAAVGSGHRKQAASQEGRQKHAKNNSQAKPSACDGLARQPEEVVLQASVSSYHLFRDVAEVTAFRGSLLSWYDQEKRDLPWRRRAEDEMDLDRRAYAVWVSEVMLQQTQVATVINYYTGWMQKWPTLQDLASASLEEVNQLWAGLGYYSRGRRLQEGARKVVEELGGHMPRTAETLQQLLPGVGRYTAGAIASIAFGQATGVVDGNVARVLCRVRAIGADPSSTLVSQQLWGLAQQLVDPARPGDFNQAAMELGATVCTPQRPLCSQCPVESLCRARQRVEQEQLLASGSLSGSPDVEECAPNTGQCHLCLPPSEPWDQTLGVVNFPRKASRKPPREESSATCVLEQPGALGAQILLVQRPNSGLLAGLWEFPSVTWEPSEQLQRKALLQELQRWAGPLPATHLRHLGEVVHTFSHIKLTYQVYGLALEGQTPVTTVPPGARWLTQEEFHTAAVSTAMKKVFRVYQGQQPGTCMGWKRSQVSSPCSRKKPRMGQQVLDNFFRSHISTDAHSLNSAAQ [S480W], the “8OG:A repair function score” value came out at 0.022.
Under MRKPRAAVGSGHRKQAASQEGRQKHAKNNSQAKPSACDGLARQPEEVVLQASVSSYHLFRDVAEVTAFRGSLLSWYDQEKRDLPWRRRAEDEMDLDRRAYAVWVSEVMLQQTQVATVINYYTGWMQKWPTLQDLASASLEEVNQLWAGLGYYSRGRRLQEGARKVVEELGGHMPRTAETLQQLLPGVGRYTAGAIASIAFGQATGVVDGNVARVLCRVRAIGADPSSTLVSQQLWGLAQQLVDPARPGDFNQAAMELGATVCTPQRPLCSQCPVESLCRARQRVEQEQLLASGSLSGSPDVEECAPNTGQCHLCLPPSEPWDQTLGVVNFPRKASRKPPREESSATCVLEQPGALGAQILLVQRPNSGLLAGLWEFPSVTWEPSEQLQRKALLQELQRWAGPLPATHLRHLGEVVHTFSHIKLTYQVYGLALEGQTPVTTVPPGARWLTQEEFHTAAVSTAMKKVFRVYQGQQPGTCMGTKRSQVSSPCSRKKPRMGQQVLDNFFRSHISTDAHSLNSAAQ [S480T] stands 0.0286; under MRKPRAAVGSGHRKQAASQEGRQKHAKNNSQAKPSACDGLARQPEEVVLQASVSSYHLFRDVAEVTAFRGSLLSWYDQEKRDLPWRRRAEDEMDLDRRAYAVWVSEVMLQQTQVATVINYYTGWMQKWPTLQDLASASLEEVNQLWAGLGYYSRGRRLQEGARKVVEELGGHMPRTAETLQQLLPGVGRYTAGAIASIAFGQATGVVDGNVARVLCRVRAIGADPSSTLVSQQLWGLAQQLVDPARPGDFNQAAMELGATVCTPQRPLCSQCPVESLCRARQRVEQEQLLASGSLSGSPDVEECAPNTGQCHLCLPPSEPWDQTLGVVNFPRKASRKPPREESSATCVLEQPGALGAQILLVQRPNSGLLAGLWEFPSVTWEPSEQLQRKALLQELQRWAGPLPATHLRHLGEVVHTFSHIKLTYQVYGLALEGQTPVTTVPPGARWLTQEEFHTAAVSTAMKKVFRVYQGQQPGTCMGVKRSQVSSPCSRKKPRMGQQVLDNFFRSHISTDAHSLNSAAQ [S480V], 0.00525; under MRKPRAAVGSGHRKQAASQEGRQKHAKNNSQAKPSACDGLARQPEEVVLQASVSSYHLFRDVAEVTAFRGSLLSWYDQEKRDLPWRRRAEDEMDLDRRAYAVWVSEVMLQQTQVATVINYYTGWMQKWPTLQDLASASLEEVNQLWAGLGYYSRGRRLQEGARKVVEELGGHMPRTAETLQQLLPGVGRYTAGAIASIAFGQATGVVDGNVARVLCRVRAIGADPSSTLVSQQLWGLAQQLVDPARPGDFNQAAMELGATVCTPQRPLCSQCPVESLCRARQRVEQEQLLASGSLSGSPDVEECAPNTGQCHLCLPPSEPWDQTLGVVNFPRKASRKPPREESSATCVLEQPGALGAQILLVQRPNSGLLAGLWEFPSVTWEPSEQLQRKALLQELQRWAGPLPATHLRHLGEVVHTFSHIKLTYQVYGLALEGQTPVTTVPPGARWLTQEEFHTAAVSTAMKKVFRVYQGQQPGTCMGSFRSQVSSPCSRKKPRMGQQVLDNFFRSHISTDAHSLNSAAQ [K481F], 0.0166.
